# Laboratory results taken from IntAct's records for PubMed 29892012.
# B1: Chorion-specific transcription factor GCMb (Homo sapiens), O75603 (parent)
# chain: MPAAAVQEAVGVCSYGMQLSWDINDPQMPQELALFDQFREWPDGYVRFIYSSDEKKAQRHLSGWAMRNTNNHNGHILKKSCLGVVVCTQACTLPDGSRLQLRPAICDKARLKQQKKACPNCHSALELIPCRGHSGYPVTNFWRLDGNAIFFQAKGVHDHPRPESKSETEARRSAIKRQMASFYQPQKKRIRESEAEENQDSSGHFSNIPPLENPEDFDIVTETSFPIPGQPCPSFPKSDVYKATCDLATFQGDKMPPFQKYSSPRIYLPRPPCSYELANPGYTNSSPYPTLYKDSTSIPNDTDWVHLNTLQCNVNSYSSYERSFDFTNKQHGWKPALGKPSLVERTNHGQFQAMATRPYYNPELPCRYLTTPPPGAPALQTVITTTTKVSYQAYQPPAMKYSDSVREVKSLSSCNYAPEDTGMSVYPEPWGPPVTVTRAASPSGPPPMKIAGDCRAIRPTVAIPHEPVSSRTDEAETWDVCLSGLGSAVSYSDRVGPFFTYNNEDF
# B2: Coiled-coil alpha-helical rod protein 1 (Homo sapiens), Q8TD31 (parent)
# chain: MFPPSGSTGLIPPSHFQARPLSTLPRMAPTWLSDIPLVQPPGHQDVSERRLDTQRPQVTMWERDVSSDRQEPGRRGRSWGLEGSQALSQQAEVIVRQLQELRRLEEEVRLLRETSLQQKMRLEAQAMELEALARAEKAGRAEAEGLRAALAGAEVVRKNLEEGSQRELEEVQRLHQEQLSSLTQAHEEALSSLTSKAEGLEKSLSSLETRRAGEAKELAEAQREAELLRKQLSKTQEDLEAQVTLVENLRKYVGEQVPSEVHSQTWELERQKLLETMQHLQEDRDSLHATAELLQVRVQSLTHILALQEEELTRKVQPSDSLEPEFTRKCQSLLNRWREKVFALMVQLKAQELEHSDSVKQLKGQVASLQEKVTSQSQEQAILQRSLQDKAAEVEVERMGAKGLQLELSRAQEARRRWQQQTASAEEQLRLVVNAVSSSQIWLETTMAKVEGAAAQLPSLNNRLSYAVRKVHTIRGLIARKLALAQLRQESCPLPPPVTDVSLELQQLREERNRLDAELQLSARLIQQEVGRAREQGEAERQQLSKVAQQLEQELQQTQESLASLGLQLEVARQGQQESTEEAASLRQELTQQQELYGQALQEKVAEVETRLREQLSDTERRLNEARREHAKAVVSLRQIQRRAAQEKERSQELRRLQEEARKEEGQRLARRLQELERDKNLMLATLQQEGLLSRYKQQRLLTVLPSLLDKKKSVVSSPRPPECSASAPVAAAVPTRESIKGSLSVLLDDLQDLSEAISKEEAVCQGDNLDRCSSSNPQMSS
# partner: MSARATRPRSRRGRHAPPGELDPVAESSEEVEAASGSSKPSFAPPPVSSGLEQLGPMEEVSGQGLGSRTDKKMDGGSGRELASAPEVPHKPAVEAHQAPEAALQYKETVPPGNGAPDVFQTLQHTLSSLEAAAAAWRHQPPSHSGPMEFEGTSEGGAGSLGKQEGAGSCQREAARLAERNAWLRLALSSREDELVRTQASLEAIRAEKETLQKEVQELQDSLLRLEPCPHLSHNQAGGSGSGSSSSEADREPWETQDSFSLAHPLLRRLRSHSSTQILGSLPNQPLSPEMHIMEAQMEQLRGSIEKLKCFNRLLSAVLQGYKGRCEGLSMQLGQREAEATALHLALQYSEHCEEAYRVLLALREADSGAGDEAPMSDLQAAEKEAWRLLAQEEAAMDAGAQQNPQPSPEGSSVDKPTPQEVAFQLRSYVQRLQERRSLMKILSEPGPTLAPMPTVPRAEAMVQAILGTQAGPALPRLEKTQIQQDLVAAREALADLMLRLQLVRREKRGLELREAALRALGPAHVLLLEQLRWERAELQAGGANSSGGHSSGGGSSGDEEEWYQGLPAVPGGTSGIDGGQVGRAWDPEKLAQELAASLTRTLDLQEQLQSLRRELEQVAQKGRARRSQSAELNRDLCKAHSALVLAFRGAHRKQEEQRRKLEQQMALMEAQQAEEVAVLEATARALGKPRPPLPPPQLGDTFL
# B3: Zyxin (Homo sapiens), Q15942 (parent)
# chain: MAAPRPSPAISVSVSAPAFYAPQKKFGPVVAPKPKVNPFRPGDSEPPPAPGAQRAQMGRVGEIPPPPPEDFPLPPPPLAGDGDDAEGALGGAFPPPPPPIEESFPPAPLEEEIFPSPPPPPEEEGGPEAPIPPPPQPREKVSSIDLEIDSLSSLLDDMTKNDPFKARVSSGYVPPPVATPFSSKSSTKPAAGGTAPLPPWKSPSSSQPLPQVPAPAQSQTQFHVQPQPQPKPQVQLHVQSQTQPVSLANTQPRGPPASSPAPAPKFSPVTPKFTPVASKFSPGAPGGSGSQPNQKLGHPEALSAGTGSPQPPSFTYAQQREKPRVQEKQHPVPPPAQNQNQVRSPGAPGPLTLKEVEELEQLTQQLMQDMEHPQRQNVAVNELCGRCHQPLARAQPAVRALGQLFHIACFTCHQCAQQLQGQQFYSLEGAPYCEGCYTDTLEKCNTCGEPITDRMLRATGKAYHPHCFTCVVCARPLEGTSFIVDQANRPHCVPDYHKQYAPRCSVCSEPIMPEPGRDETVRVVALDKNFHMKCYKCEDCGKPLSIEADDNGCFPLDGHVLCRKCHTARAQT
# partner: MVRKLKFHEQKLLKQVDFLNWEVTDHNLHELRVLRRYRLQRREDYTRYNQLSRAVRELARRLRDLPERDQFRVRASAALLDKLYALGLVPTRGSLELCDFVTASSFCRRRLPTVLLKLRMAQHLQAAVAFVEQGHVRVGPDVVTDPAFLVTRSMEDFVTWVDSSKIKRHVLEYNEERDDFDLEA
# B4: TBC1 domain family member 22B (Homo sapiens), Q9NU19 (parent)
# chain: MAAENSKQFWKRSAKLPGSIQPVYGAQHPPLDPRLTKNFIKERSKVNTVPLKNKKASSFHEFARNTSDAWDIGDDEEEDFSSPSFQTLNSKVALATAAQVLENHSKLRVKPERSQSTTSDVPANYKVIKSSSDAQLSRNSSDTCLRNPLHKQQSLPLRPIIPLVARISDQNASGAPPMTVREKTRLEKFRQLLSSQNTDLDELRKCSWPGVPREVRPITWRLLSGYLPANTERRKLTLQRKREEYFGFIEQYYDSRNEEHHQDTYRQIHIDIPRTNPLIPLFQQPLVQEIFERILFIWAIRHPASGYVQGINDLVTPFFVVFLSEYVEEDVENFDVTNLSQDMLRSIEADSFWCMSKLLDGIQDNYTFAQPGIQKKVKALEELVSRIDEQVHNHFRRYEVEYLQFAFRWMNNLLMRELPLRCTIRLWDTYQSEPEGFSHFHLYVCAAFLIKWRKEILDEEDFQGLLMLLQNLPTIHWGNEEIGLLLAEAYRLKYMFADAPNHYRR
# partner: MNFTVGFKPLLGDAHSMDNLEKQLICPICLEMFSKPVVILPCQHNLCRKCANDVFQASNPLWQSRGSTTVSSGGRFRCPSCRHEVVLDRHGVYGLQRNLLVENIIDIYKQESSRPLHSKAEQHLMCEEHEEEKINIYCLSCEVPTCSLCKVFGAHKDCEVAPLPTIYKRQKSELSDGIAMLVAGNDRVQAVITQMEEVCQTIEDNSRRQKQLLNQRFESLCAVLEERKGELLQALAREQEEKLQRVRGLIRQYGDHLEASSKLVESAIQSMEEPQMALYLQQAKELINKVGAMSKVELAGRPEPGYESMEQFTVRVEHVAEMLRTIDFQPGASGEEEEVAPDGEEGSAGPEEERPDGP
# Variants of: B1
# Details: with crx_human CRX
row,Variant,effect of a mutation on the interaction
1,G349E,with no effect

# Variants of: B1
# Details: with rbpms_human RBPMS
row,Variant,effect of a mutation on the interaction
1,G349E,with no effect

# Variants of: B2
# Details: with usbp1_human USHBP1, Q8N6Y0
row,Variant,effect of a mutation on the interaction
1,W337R,disrupting interaction strength

# Variants of: B3
# Details: with imp3_human IMP3, Q9NV31
row,Variant,effect of a mutation on the interaction
1,R167G,with no effect

# Variants of: B4
# Details: with tri54_human TRIM54, Q9BYV2
row,Variant,effect of a mutation on the interaction
1,A349T,disrupting interaction strength
